According to US20160264649A1:

How the values were obtained:
Experiment in all cases: cell-based or functional assay
[1] = target: HIV-1 Env of isolate 92UG001 (subtype D) (HIV-1)
[2] = target: HIV-1 Env of isolate 92UG005 (subtype D) (HIV-1)
[3] = target: HIV-1 Env of isolate 92UG024 (subtype D) (HIV-1)
[4] = target: HIV-1 Env of isolate 92UG046 (subtype D) (HIV-1)
[5] = target: HIV-1 Env of isolate 92UG114 (subtype D) (HIV-1)
[6] = target: HIV-1 Env of isolate 98CN006 (subtype CRF08_BC) (HIV-1)
[7] = target: HIV-1 Env of isolate 98CN009 (subtype CRF07_BC) (HIV-1)
[8] = target: HIV-1 Env of isolate MGRM-D-001 (subtype D) (HIV-1)
[9] = target: HIV-1 Env of isolate MGRM-D-002 (subtype D) (HIV-1)
[10] = target: HIV-1 Env of isolate MGRM-D-003 (subtype D) (HIV-1)
[11] = target: HIV-1 Env of isolate MGRM-D-004 (subtype D) (HIV-1)
[12] = target: HIV-1 Env of isolate MGRM-D-005 (subtype D) (HIV-1)
[13] = target: HIV-1 Env of isolate MGRM-D-008 (subtype D) (HIV-1)
[14] = target: HIV-1 Env of isolate MGRM-D-011 (subtype D) (HIV-1)
[15] = target: HIV-1 Env of isolate MGRM-D-012 (subtype D) (HIV-1)
[16] = target: HIV-1 Env of isolate MGRM-D-013 (subtype D) (HIV-1)
[17] = target: HIV-1 Env of isolate MGRM-D-014 (subtype D) (HIV-1)
[18] = target: HIV-1 Env of isolate MGRM-D-016 (subtype D) (HIV-1)
[19] = target: HIV-1 Env of isolate MGRM-D-018 (subtype D) (HIV-1)
[20] = target: HIV-1 Env of isolate MGRM-D-019 (subtype D) (HIV-1)
[21] = target: HIV-1 Env of isolate MGRM-D-020 (subtype D) (HIV-1)
[22] = target: HIV-1 Env of isolate MGRM-D-021 (subtype D) (HIV-1)
[23] = target: HIV-1 Env of isolate MGRM-D-022 (subtype D) (HIV-1)
[24] = target: HIV-1 Env of isolate MGRM-D-024 (subtype D) (HIV-1)
[25] = target: HIV-1 Env of isolate MGRM-D-026 (subtype D) (HIV-1)
[26] = target: HIV-1 Env of isolate MGRM-D-028 (subtype D) (HIV-1)
[27] = target: HIV-1 Env of isolate MGRM-D-029 (subtype D) (HIV-1)
[28] = target: HIV-1 Env of isolate MGRM-F1-004 (subtype F) (HIV-1)
[29] = target: HIV-1 Env of isolate MGRM-F1-006 (subtype F) (HIV-1)
[30] = target: HIV-1 Env of isolate MGRM-F1-008 (subtype F) (HIV-1)
[31] = target: HIV-1 Env of isolate MGRM-F1-010 (subtype F) (HIV-1)
[32] = target: HIV-1 Env of isolate MGRM-F1-012 (subtype F) (HIV-1)
[33] = target: HIV-1 Env of isolate MGRM-F1-013 (subtype F) (HIV-1)
[34] = target: HIV-1 Env of isolate MGRM-F1-014 (subtype F) (HIV-1)
[35] = target: HIV-1 Env of isolate MGRM-F1-015 (subtype F) (HIV-1)
[36] = target: HIV-1 Env of isolate MGRM-F1-016 (subtype F) (HIV-1)
[37] = target: HIV-1 Env of isolate MGRM-F1-017 (subtype F) (HIV-1)
[38] = target: HIV-1 Env of isolate MGRM-F1-018 (subtype F) (HIV-1)
[39] = target: HIV-1 Env of isolate MGRM-F1-020 (subtype F) (HIV-1)
[40] = target: HIV-1 Env of isolate MGRM-F1-021 (subtype F) (HIV-1)
[41] = target: HIV-1 Env of isolate MGRM-F1-022 (subtype F) (HIV-1)
[42] = target: HIV-1 Env of isolate MGRM-F1-023 (subtype F) (HIV-1)
[43] = target: HIV-1 Env of pseudovirus isolate MGRM-G-001 (subtype G) (HIV-1)
[44] = target: HIV-1 Env of pseudovirus isolate MGRM-G-004 (subtype G) (HIV-1)
[45] = target: HIV-1 Env of pseudovirus isolate MGRM-G-006 (subtype G) (HIV-1)
[46] = target: HIV-1 Env of pseudovirus isolate MGRM-G-009 (subtype G) (HIV-1)
[47] = target: HIV-1 Env of pseudovirus isolate MGRM-G-011 (subtype G) (HIV-1)
[48] = target: HIV-1 Env of pseudovirus isolate MGRM-G-013 (subtype G) (HIV-1)
[49] = target: HIV-1 Env of pseudovirus isolate MGRM-G-014 (subtype G) (HIV-1)
[50] = target: HIV-1 Env of pseudovirus isolate MGRM-G-015 (subtype G) (HIV-1)
[51] = target: HIV-1 Env of pseudovirus isolate MGRM-G-016 (subtype G) (HIV-1)
[52] = target: HIV-1 Env of pseudovirus isolate MGRM-G-017 (subtype G) (HIV-1)
[53] = target: HIV-1 Env of pseudovirus isolate MGRM-G-019 (subtype G) (HIV-1)
[54] = target: HIV-1 Env of pseudovirus isolate MGRM-G-024 (subtype G) (HIV-1)
[55] = target: HIV-1 Env of pseudovirus isolate MGRM-G-025 (subtype G) (HIV-1)
[56] = target: HIV-1 Env of pseudovirus isolate MGRM-G-027 (subtype G) (HIV-1)
[57] = target: HIV-1 Env of pseudovirus isolate MGRM-G-028 (subtype G) (HIV-1)
[58] = target: envelope of aMLV pseudovirus (negative control)

PGT-121 (antibody)
IC50 (neutralization) [1]: > 50 µg/mL
IC50 (neutralization) [2]: 18.3 µg/mL
IC50 (neutralization) [3]: > 50 µg/mL
IC50 (neutralization) [4]: > 50 µg/mL
IC50 (neutralization) [5]: 0.004 µg/mL
IC50 (neutralization) [6]: 0.01 µg/mL
IC50 (neutralization) [7]: 0.009 µg/mL
IC50 (neutralization) [8]: 0.615 µg/mL
IC50 (neutralization) [9]: 0.006 µg/mL
IC50 (neutralization) [10]: 10.7 µg/mL
IC50 (neutralization) [11]: > 50 µg/mL
IC50 (neutralization) [12]: > 50 µg/mL
IC50 (neutralization) [13]: > 50 µg/mL
IC50 (neutralization) [14]: 0.018 µg/mL
IC50 (neutralization) [15]: > 50 µg/mL
IC50 (neutralization) [16]: > 50 µg/mL
IC50 (neutralization) [17]: 0.009 µg/mL
IC50 (neutralization) [18]: > 50 µg/mL
IC50 (neutralization) [19]: 0.005 µg/mL
IC50 (neutralization) [20]: > 50 µg/mL
IC50 (neutralization) [21]: 0.01 µg/mL
IC50 (neutralization) [22]: 5.33 µg/mL
IC50 (neutralization) [23]: > 50 µg/mL
IC50 (neutralization) [24]: 0.038 µg/mL
IC50 (neutralization) [25]: > 50 µg/mL
IC50 (neutralization) [26]: 0.009 µg/mL
IC50 (neutralization) [27]: > 50 µg/mL
IC50 (neutralization) [28]: 1.67 µg/mL
IC50 (neutralization) [29]: 5.33 µg/mL
IC50 (neutralization) [30]: > 50 µg/mL
IC50 (neutralization) [31]: 0.016 µg/mL
IC50 (neutralization) [32]: 1.91 µg/mL
IC50 (neutralization) [33]: 0.083 µg/mL
IC50 (neutralization) [34]: 0.082 µg/mL
IC50 (neutralization) [35]: 28.4 µg/mL
IC50 (neutralization) [36]: 0.931 µg/mL
IC50 (neutralization) [37]: 16.9 µg/mL
IC50 (neutralization) [38]: 0.04 µg/mL
IC50 (neutralization) [39]: 0.167 µg/mL
IC50 (neutralization) [40]: 0.099 µg/mL
IC50 (neutralization) [41]: 0.104 µg/mL
IC50 (neutralization) [42]: 0.097 µg/mL
IC50 [43]: 0.004 µg/mL
IC50 [44]: 0.115 µg/mL
IC50 [45]: > 50 µg/mL
IC50 [46]: 0.02 µg/mL
IC50 [47]: 3.17 µg/mL
IC50 [48]: 3.99 µg/mL
IC50 [49]: 0.009 µg/mL
IC50 [50]: > 50 µg/mL
IC50 [51]: > 50 µg/mL
IC50 [52]: 0.004 µg/mL
IC50 [53]: 0.011 µg/mL
IC50 [54]: 0.014 µg/mL
IC50 [55]: 0.063 µg/mL
IC50 [56]: 0.124 µg/mL
IC50 [57]: 0.014 µg/mL
IC50 [58]: > 50 µg/mL
